Laboratory results: PMC2064962, “Inhibition of Protein Aggregation: Supramolecular Assemblies of Arginine Hold the Key” (PLoS ONE, 2007)

Target: the molecule itself
Experiment: SEC; SMART Superdex G75 column, 0.02 M sodium phosphate buffer pH 7.4 (PB), with or without 0.2 M arginine; 10 µg peptide in 50 µl, flow 100 µl/min, monitored at 257 nm; self-association, monomer and tetramer seen

B1: Mouse Alzheimer's amyloid beta 1-42 peptide (peptide)
peptide: DAEFGHDSGFEVRHQKLVFFAEDVGSNKGAIIGLMVGGVVIA
notes: Amyloid beta 1-42, the cut product of mouse amyloid precursor protein (APP); numbers count on: the Aβ peptide; it was removed; also called Aβ_(1-42); mouse Aβ_(1-42); source: synthetic peptide (Fmoc chemistry, purified on ProRPC C-18); dissolved in 0.01 M NaOH before use
With B1 the “stoichiometry N” value was 4.
